Biological target: HCMV glycoprotein H (gH) on TB40 virus (Human Cytomegalovirus (HCMV), TB40 virus)
Assay: cell-based or functional assay

mAb MSL-109 (antibody)
IC50 (µg/ml), HCMV TB40 neutralization on ARPE-19 epithelial cells: 0.89 µg/mL
IC50 (µg/ml), HCMV TB40 neutralization on MRC-5 fibroblasts: 0.46 µg/mL

Reference: US20230174626A1
